Reference: paper PMC12528321

T1: AmMIXTA (Antirrhinum majus, UniProt Q38739 1-321)
T1 sequence: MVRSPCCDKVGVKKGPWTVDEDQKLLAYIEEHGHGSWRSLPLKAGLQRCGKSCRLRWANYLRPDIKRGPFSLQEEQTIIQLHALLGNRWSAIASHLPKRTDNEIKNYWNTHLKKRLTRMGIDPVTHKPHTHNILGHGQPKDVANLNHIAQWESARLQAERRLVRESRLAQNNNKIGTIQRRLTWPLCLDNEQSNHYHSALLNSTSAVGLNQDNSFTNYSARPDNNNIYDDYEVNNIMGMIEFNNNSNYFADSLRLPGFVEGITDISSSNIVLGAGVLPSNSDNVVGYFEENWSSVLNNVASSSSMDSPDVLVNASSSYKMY

T2: NtZFP8 (Nicotiana tabacum, UniProt A0A1S4DEM8 1-256)
T2 sequence: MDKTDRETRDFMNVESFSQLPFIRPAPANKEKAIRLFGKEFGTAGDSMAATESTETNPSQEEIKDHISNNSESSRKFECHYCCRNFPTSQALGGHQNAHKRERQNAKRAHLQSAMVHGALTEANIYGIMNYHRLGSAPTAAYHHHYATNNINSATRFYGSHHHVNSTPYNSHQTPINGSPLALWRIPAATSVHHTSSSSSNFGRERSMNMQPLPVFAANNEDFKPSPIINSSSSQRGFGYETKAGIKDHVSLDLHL

B1: MIXTA_EMSA_Probe (dsDNA)
DNA 1: AGACGGATCCATTGCAATAGGTGGTGGTGGATCCTGTAGGAATTCGGA
DNA 2: TCCGAATTCCTACAGGATCCACCACCACCTATTGCAATGGATCCGTCT
B2: ZFP8_EMSA_Probe (dsDNA)
DNA 1: AGACGGATCCATTGCAATAAGAAGAAGAAGATCCTGTAGGAATTCGGA
DNA 2: TCCGAATTCCTACAGGATCTTCTTCTTCTTATTGCAATGGATCCGTCT

Experiments:
AmMIXTA = target: T1, AmMIXTA; experiment: EMSA
NtZFP8 = target: T2, NtZFP8; experiment: EMSA

Binder	binding result (AmMIXTA)	binding result (NtZFP8)
B1	binds	
B2		binds
